{"source": "patent US10005838B2", "about": "“Milk fat globule epidermal growth factor 8 regulates fatty acid uptake” (REGENTS OF THE UNIVERSITY OF CALIFORNIA, priority 2013, dated 2018)", "molecules": {"B1": {"name": "rMfge8: recombinant Milk Fat Globule Epidermal Growth Factor 8, an integrin ligand, expressed in High 5 cells (protein)", "chain": "ASGDFCDSSLCLNGGTCLTGQDNDIYCLCPEGFTGLVCNETERGPCSPNPCYNDAKCLVTLDTQRGDIFTEYICQCPVGYSGIHCETETNYYNLDGEYMFTTAVPNTAVPTPAPTPDLSNNLASRCSTQLGMEGGAIADSQISASSVYMGFMGLQRWGPELARLYRTGIVNAWTASNYDSKPWIQVNLLRKMRVSGVMTQGASRAGRAEYLKTFKVAYSLDGRKFEFIQDESGGDKEFLGNLDNNSLKVNMFNPTLEAQYIKLYPVSCHRGCTLRFELLGCELHGCSEPLGLKNNTIPDSQMSASSSYKTWNLRAFGWYPHLGRLDNQGKINAWTAQSNSAKEWLQVDLGTQRQVTGIITQGARDFGHIQYVASYKVAHSDDGVQWTVYEEQGSSKVFQGNLDNNSHKKNIFEKPFMARYVRVLPVSWHNRITLRLELLGC"}}, "key": {"[1]": {"system": "primary hepatocytes", "test": "Fatty acid uptake in primary hepatocytes", "type": "cell-based, mouse", "protocol": "Uptake of fatty acids by differentiated 3T3-L1 adipocytes or primary mouse adipocytes was assessed using a QBT Fatty Acid Uptake Kit (Molecular Devices). Cells were plated in triplicate in 96-well plates at a concentration of 25,000 cells per well in 100 μl of DMEM/10% FCS. Plates were centrifuged at 1000 rpm for 4 minutes and incubated at 37° Celsius for 4-5 hours. Cells were then serum deprived for 1 hour before treatment with recombinant proteins for 30 minutes followed by the addition of QBT Fatty Acid Uptake solution. […] Plates were incubated in a fluorescent plate reader at 37° Celsius and kinetic readings were acquired every 20 seconds for 30 minutes. Fluorescence values were plotted against time and data was expressed as relative fluorescent units per minutes×10^3.\nThe liver was pre-perfused through the portal vein with calcium-free buffer (0.5 mM EDTA, HBSS without Ca^2+ and Mg^2+) and next perfused with collagenase (3.5 U/ml Collegenase II (Worthington) 25 mM HEPES, HBSS with Ca^2+ and Mg^2+). […] Viability of isolated hepatocytes was determined by Trypan blue staining (around 85%) and cell density was approximately 60% confluence. […]"}, "[2]": {"test": "Liver and small intestine triglyceride content after olive oil gavage", "type": "in vivo, mouse", "conditions": "Mfge8−/− mice; 8 hours after olive oil gavage", "protocol": "6-8 week-old mice were fasted for 4 hours and then gavaged with 15 μL olive oil per gram body weight. Mice had access to water but not food for the remainder of the experiment. In the experiments in FIGS. 3C and 3F, 50 μg/kg body weight of recombinant protein was mixed into olive oil and administered immediately to mice by gavage. In blocking antibody experiments, integrins αv (clone RMV-7) and 05 (clone ALULA) were administered by gavaging mice with 100 μL water containing 0.5 μg antibody per gram body weight 30 minutes before olive oil gavage. Triglyceride content of serum was assayed using a commercially available kit (Sigma-Aldrich) and fatty acid concentrations were quantified by Wako (Rabot, S. et al., FASEB J 24, 4948-4959 (2010)).\nAfter experiments described above, samples from the left lobe of the liver and the proximal small intestine were isolated and rapidly frozen in liquid nitrogen for triglyceride content assays. Control mice were starved for 8 hours before their organs were harvested as above. Triglyceride content of the intestine (Uchida, A. et al., Front Physiol 3, 26) and liver (Kim, K. Y. et al., J Clin Invest 121, 3701-3712 (2011)) and fecal samples Kim, K. Y. et al., J Clin Invest 121, 3701-3712 (2011)) were quantified as described previously."}, "[3]": {"system": "primary WT adipocytes", "test": "Glucose uptake assay (2-NBDG) in primary WT adipocytes", "type": "cell-based, mouse", "conditions": "insulin 1 μM", "protocol": "Uptake of […] by primary cells and cell lines was assessed using the fluorescent D-glucose analog 2-[N-(7-nitrobenz-2-oxa-1,3-diazol-4-yl)amino]-2-deoxy-D-glucose (2-NBDG) (Invitrogen). 2-NBDG has been successfully used as an alternative to 2-deoxyglucose in the measurement of glucose uptake in multiple cell types. Cells were plated in triplicate in 96-well plates at a concentration of 25,000 cells per well in 100 μl of DMEM/10% FCS. Plates were centrifuged at 1000 rpm for 4 minutes and incubated at 37° C. for 4-5 hours. Cells were then serum deprived for 1 hour before treatment with recombinant proteins for 20 minutes followed by the addition of 2-NBDG (100 μM) for 10 min at 37° C. in a humidified atmosphere of 5% CO2. Reaction was stopped by adding a twofold volume of ice-cold PBS and the wells were washed again with ice-cold PBS three times. The fluorescent signal before (autofluorescence) and after adding 100 μM 2-NBDG was measured using fluorescent plate reader at 37° C. (Molecular Device using the 485 nmex and 520 nmemiss filter set). The net increase in fluorescence was normalized to the lowest signal (0 cells/well). […]"}}}
{"molecule": "B1", "values": [{"measurement": "fatty acid uptake in Mfge8−/− hepatocytes", "setting": "[1]", "value": "rescued"}, {"measurement": "liver triglyceride levels after gavage", "setting": "[2]", "value": "increased significantly"}, {"measurement": "effect of insulin on glucose uptake", "setting": "[3]", "value": "significantly inhibited"}]}
